According to paper PMC11455619 (Structure (London, England : 1993), 2024):

Biological target: T1, septin-7 (commercially purified, LSBio) (UniProt Q16181 1-437, labelled with RED-tris-NTA 2nd generation dye (Monolith His-Tag labeling kit))
T1 sequence (looked up): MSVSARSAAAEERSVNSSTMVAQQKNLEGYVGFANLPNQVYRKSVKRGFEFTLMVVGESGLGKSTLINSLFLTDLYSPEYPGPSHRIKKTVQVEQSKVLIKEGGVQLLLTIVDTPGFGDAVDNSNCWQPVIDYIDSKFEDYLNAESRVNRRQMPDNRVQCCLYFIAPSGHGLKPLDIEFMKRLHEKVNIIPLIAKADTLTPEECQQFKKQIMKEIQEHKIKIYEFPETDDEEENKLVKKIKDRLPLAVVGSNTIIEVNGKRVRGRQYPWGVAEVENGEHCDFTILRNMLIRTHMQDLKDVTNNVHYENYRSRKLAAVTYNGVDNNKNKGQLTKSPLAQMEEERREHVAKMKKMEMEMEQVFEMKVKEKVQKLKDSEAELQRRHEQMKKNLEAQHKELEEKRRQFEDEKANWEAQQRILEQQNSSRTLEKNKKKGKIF
Experiment: MST

B1: SOD1 trimer, F20L-H46Q (FH) trimer-stabilising mutant (enzyme)
chain: not shown
**Q.** Which Kd does the source give for B1 here?
**A.** 6.84 µM
